Measured values from patent publication US20120329067, “Methods of Generating Zinc Finger Nucleases Having Altered Activity” (published 2012).

What was measured:
[1] = molecular target: E4 zinc finger protein (four C-terminal fingers of E2C) (artificial); assay: EMSA; settings: tags: no cleavage domain
P3 ZFN FCD S418P = P3 ZFN FCD S418P (artificial, UniProt P14870 SEQ:1-284, S418P (FokI numbering)); assay: cell_activity; settings: chain copies: 2 inferred
P3 ZFN FCD K441E = P3 ZFN FCD K441E (artificial, UniProt P14870 SEQ:1-284, K441E (FokI numbering)); assay: cell_activity; settings: chain copies: 2 inferred
Sequence of P3 ZFN FCD K441E (P14870 other isoform, or with tags, fused parts or gaps K441E (FokI numbering) | K441E K441E): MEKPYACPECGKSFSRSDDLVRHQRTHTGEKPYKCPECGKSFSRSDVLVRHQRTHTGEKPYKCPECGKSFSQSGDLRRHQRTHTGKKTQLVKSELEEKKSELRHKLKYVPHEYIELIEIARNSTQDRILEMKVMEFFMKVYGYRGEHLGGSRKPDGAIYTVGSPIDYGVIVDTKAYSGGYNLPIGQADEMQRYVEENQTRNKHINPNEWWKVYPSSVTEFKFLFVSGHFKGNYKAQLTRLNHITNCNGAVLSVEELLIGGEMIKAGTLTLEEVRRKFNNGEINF

[2] = molecular target: E3 zinc finger protein (three C-terminal fingers of E2C) (artificial); assay: EMSA; settings: tags: no cleavage domain
Sequence of E3 zinc finger protein (three C-terminal fingers of E2C) (artificial) (chain, as listed by the source): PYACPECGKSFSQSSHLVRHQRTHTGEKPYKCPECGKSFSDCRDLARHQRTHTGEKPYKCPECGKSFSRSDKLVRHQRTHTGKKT

[3] = molecular target: E6 (E2C) six-finger zinc finger protein (artificial); assay: EMSA; settings: tags: no cleavage domain
Sequence of E6 (E2C) six-finger zinc finger protein (artificial) (chain, as listed by the source): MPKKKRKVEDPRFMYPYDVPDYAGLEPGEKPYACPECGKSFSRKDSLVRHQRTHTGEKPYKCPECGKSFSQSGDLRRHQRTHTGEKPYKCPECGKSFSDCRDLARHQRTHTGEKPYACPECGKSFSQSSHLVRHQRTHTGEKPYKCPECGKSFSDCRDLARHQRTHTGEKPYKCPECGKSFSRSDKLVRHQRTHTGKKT

[4] = molecular target: E5 zinc finger protein (five C-terminal fingers of E2C) (artificial); assay: EMSA; settings: tags: no cleavage domain
Sequence of E5 zinc finger protein (five C-terminal fingers of E2C) (artificial) (chain, as listed by the source): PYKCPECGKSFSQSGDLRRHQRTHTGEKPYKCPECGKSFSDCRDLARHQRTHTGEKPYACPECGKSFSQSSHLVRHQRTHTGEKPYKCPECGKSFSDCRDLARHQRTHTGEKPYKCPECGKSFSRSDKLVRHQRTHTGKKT

Sequence of E4 zinc finger protein (four C-terminal fingers of E2C) (artificial) (chain, as listed by the source): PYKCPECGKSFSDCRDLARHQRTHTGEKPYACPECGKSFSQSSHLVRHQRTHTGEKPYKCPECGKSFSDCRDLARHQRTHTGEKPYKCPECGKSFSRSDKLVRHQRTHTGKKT
Sequence of P3 ZFN FCD S418P (P14870 other isoform, or with tags, fused parts or gaps S418P (FokI numbering) | S418P S418P): as the sequence (P14870 other isoform, or with tags, fused parts or gaps K441E (FokI numbering) | K441E K441E) above, with S123P, E146K counted along it

B1: E4 binding site (dsDNA)
DNA 1: GGGGCCGGAGCC
DNA 2: GGCTCCGGCCCC
With B1 the Kd [1] was 10.6 nM.

B2: P3/P3 cleavage site, MluI spacer (dsDNA)
DNA 1: CGCCACTGCACGCGTGCAGTGGCG
DNA 2: CGCCACTGCACGCGTGCAGTGGCG
B2 was tested, and the binding signal (P3 ZFN FCD S418P) was > 10 fold of wt FCD activity and the binding signal (P3 ZFN FCD K441E) was > 5 fold of wt FCD activity.

B3: E3 binding site (dsDNA)
DNA 1: GGGGCCGGA
DNA 2: TCCGGCCCC
With B3 the Kd [2] was 35 nM.

B4: E6 (E2C) binding site (dsDNA)
DNA 1: GGGGCCGGAGCCGCAGTG
DNA 2: CACTGCGGCTCCGGCCCC
Binder B4 has a Kd [3] of 0.85 nM.

B5: E5 binding site (dsDNA)
DNA 1: GGGGCCGGAGCCGCA
DNA 2: TGCGGCTCCGGCCCC
For B5, the Kd [4] was 4.2 nM.
